Reference: publication PMC7806720, “Restoration of the reduced CLSP activity alleviates memory impairment in Alzheimer disease” (Translational Psychiatry, 2021)

Legend:
[1] = target: recombinant apolipoprotein E4 (UniProt P02649); experiment: plate binding assay with HiBiT luminescence (Nano-Glo HiBiT Extracellular Detection System); ApoE4 or adiponectin coated on 96-well plates (20 pM in 50 mM carbonate buffer pH 9.6, overnight 4 °C), blocked with 1% skim milk in PBS; CLSP-HiBiT in PBS added, overnight 4 °C; washed with PBS with 0.1% NP-40; in duplicate
recombinant adiponectin = target: T1, recombinant adiponectin (UniProt Q15848 19-244); experiment: as above; settings: both partners purified
T1 construct: adiponectin; also called ADN; source: recombinant
T1 sequence (looked up): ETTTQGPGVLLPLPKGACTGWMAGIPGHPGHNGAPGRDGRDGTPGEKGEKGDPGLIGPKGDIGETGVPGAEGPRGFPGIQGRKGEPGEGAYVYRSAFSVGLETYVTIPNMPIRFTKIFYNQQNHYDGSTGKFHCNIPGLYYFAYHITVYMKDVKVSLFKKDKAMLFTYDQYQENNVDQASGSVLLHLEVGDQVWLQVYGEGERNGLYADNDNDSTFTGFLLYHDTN

B1: CLSP-HiBiT (natural protein, human, UniProt Q9NZT1 1-146, looked up)
chain: MAGELTPEEEAQYKKAFSAVDTDGNGTINAQELGAALKATGKNLSEAQLRKLISEVDSDGDGEISFQEFLTAAKKARAGLEDLQVAFRAFDQDGDGHITVDELRRAMAGLGQPLPQEELDAMIREADVDQDGRVNYEEFARMLAQE
notes: calmodulin-like skin protein (CLSP); also called recombinant CLSP-HiBiT; source: recombinant
- Kd [1]: 8.8 pM
- Kd (recombinant adiponectin): 7.8 pM
